Tested on: MS2 coat protein
Assay: apparent KD of MS2 coat protein; designed switch direction (-1 OFF switch, 1 ON switch): -1; higher = weaker reporter binding
In short: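 Designed RNA switches were transcribed on Illumina chips by stalled E. coli RNA polymerase and titrated with SNAP-549-labelled MS2 coat protein from 0.7 or 1.5 nM, doubling to 3 µM. Step length ran from 0.8–1.5 h at the lowest concentration to 10–20 min at the highest. The apparent KD is the median over clusters for each design, from curve-fitted normalised cluster fluorescence.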

[1] = Eterna round: R95, input ligand: FMN 200 uM
[2] = Eterna round: R95, input ligand: microRNA oligo, concentration not stated
[3] = Eterna round: R95, input ligand: none
[4] = input ligand: microRNA oligo, concentration not stated

Sequence | apparent KD of MS2 coat protein [1] [nM] | apparent KD of MS2 coat protein [2] [nM] | apparent KD of MS2 coat protein [3] [nM] | apparent KD of MS2 coat protein (input ligand: FMN 200 uM) [nM] | apparent KD of MS2 coat protein [4] [nM] | apparent KD of MS2 coat protein (input ligand: none) [nM]
AGUACUAACACGAAAGUGUUAGUACUAUAAGCUUGUGAUACAUGAGGAUCACCCAUGUCCUCAUAAGCUCGUCUUAU [Mat - Sensor v3 - Turn-off var 2 - D101] (puzzle: Sensor v3, turn-off variant 2) | 19 | 1820 | 19.6 | – | – | –
GAUUAUGCGAGCUUUAGGGACAUGAGGAUCACCCAUGUUCGUCUUAUUGGUCUGGAUACACUGACAUACCUAAAUCU [JMF 60] (puzzle: Sensor v3, turn-off variant 1) | 16.8 | 22.6 | 18.4 | – | – | –
CUGGUGCGCGGAGGAUAUCGGAAAGGAAGUGUACGAGAAGGUCGUUCCACCAAACAUGAGGAUCACCCAUGUAGGAGUGACCUC [PowerStrip EXNG 1.7] (Eterna round: R96, puzzle: Exclusion NG 1) | – | – | – | 127 | 45.6 | 62.9
UUGUUCCGUGUAGGAUAUUGGCCUCCCUCGGGCCGAGAAGGACAUGAGGAUCACCCAUGUAUGCUAUUAUCGCGCGUGGCGCAC [Design 94] (Eterna round: R96, puzzle: Exclusion NG 1) | – | – | – | 330 | 23.1 | 25.2
CACCUGAACACAGGAUAUCCUACAUGAGGAUCACCCAUGUAAUAAAUGAGAAUUUCGAAUGUAAUGGAGAAGGGUGGAUAAGGC [Ostracism 89 - Jieux - Exclusion NG 2] (Eterna round: R96, puzzle: Exclusion NG 2) | – | – | – | 137 | 81.2 | 97.2
CCUAGUUGGUAAGGAUAUCCUACAUUGUUCUGGCCCGGGCAUGCUACAUGAGGAUCACCCAUGUGGGAGAAGGUGCGUCAUCGC [Design 17] (Eterna round: R96, puzzle: Exclusion NG 2) | – | – | – | 80.4 | 53.3 | 71.7
UGAUCUAGCGGAGGAUAUACAUGAGGAUCACCCAUGUAUAGGCUAUCUGGUGACAGGUGGAACAUGUAGAAGGCCGCUAGAUCU [JL ENG2 3.80] (Eterna round: R96, puzzle: Exclusion NG 2) | – | – | – | 78.1 | 12.7 | 17.9
UUUUAGAGAGGAUAUAUAUUGUGAAACAUGAGGAUCACCCAUGUAAUAAUAUGGAUGAAAAUAGAAGGCUCAUUUA [Mat - Exclusion 5 - JL mod - D7] (puzzle: Exclusion 5) | 52.1 | 62.7 | 73.6 | – | – | –
CCUACGUUGUAGGAUAUAGUGAUUUAUUAAUAUUUAGAAGGACAUACAUGAGGAUCACCCAUGUGAGUUGGGUG [Eternabot (L2) Solution 27] (Eterna round: R97, puzzle: Exclusion 6) | – | – | – | 153 | – | 674
ACAGUGUUAGGAUAUGUGAGAGUUAGUCUCGACUAGUCGAAGCAGAAGGAACAUGAGGAUCACCCAUGUAGAUC [EX4 #78] (Eterna round: R97, puzzle: Exclusion 4) | – | – | – | 114 | – | 46.7
UCACGGGACUGAGGAUAUACAUGAACCAUUUUUGUAGAAGGCAGAAUGUUUGAUCAUACACUAAACAUGAGGAUCACCCAUGUU [JR_ExcNG1_Sub026] (Eterna round: R96, puzzle: Exclusion NG 1) | – | – | – | 16 | 16.3 | 20.1
AAAACCAGAGGAUAUGCGCAUAGAUCAGACUUUGUUUCUGAACAUGAGGAUCACCCAUGUAGAAGGCUGUAAAA [Ex2 #82] (Eterna round: R97, puzzle: Exclusion 2) | – | – | – | 27.3 | – | 20.5
GGUUGGCGAGGAUAUACAUGAGGAUCACCCAUGUGAGAGAAAAAAGUGAGUAAGAAAAGUAGAAGGCGCUGACG [salish99-ex3-33] (Eterna round: R96, puzzle: Exclusion 3) | – | – | – | 401 | 51 | 47.3
